{
  "source": "paper PMC9020658",
  "biological_target": "UAF (Rrn5-Rrn9-Rrn10-Uaf30-H3-H4);TBP (TATA-box-binding protein) ((budding yeast);(budding yeast)) (UniProt Q02983+P53437+P38204+Q08747+P61830+P02309+P13393)",
  "assay": "cryo-EM 2.8 A",
  "conditions": "30 mM Hepes-NaOH pH 7.5, 30 mM sodium citrate pH 6.0, 250 mM KCl, 2 mM DTT; filter binding 1 h at 4 C; footprinting on ice, then 2.5 mM MgCl2, 0.5 mM CaCl2 …",
  "data": [
    {"sequence": "GAAAAAAAAAATATACGCTAAGATTTTTGGAGAATAGCTTAAATTGAAGTTTTTCTCGGCGAGAAATACGTAGTTAAGGCAGAGCGACAGAGAGGGCAAAAGAAAATAAAAGTAAGATTTTAGTTTGTAATGGGAGGGGGGGTTTAGTCAT (double strand) [35S rRNA promoter -190/-40 (cryo-EM DNA)]", "values": [
      {"measurement": "binding", "result": "binds"}
    ]}
  ]
}
